According to patent US20210040204A1 (INSERM INSTITUT NATIONAL DE LA SANT ET DE LA RECHERCHE M …, published 2021):
Substitutions are numbered along the chain they refer to.

B1: humanized anti-CLDN1 mAb H2L1 (antibody, V domains shown)
VH: QVQLVESGGGVVQPGRSLRLSCAASGFSFSSYGMNWVRQAPGKGLEWVTSISPSGSYFYYADSVKGRFTISRDNSKNTLYLQMNSLRAEDTAIYYCARLPGFNPPFDHWGQGTLVTVSS
VL: DIQMTQSPATLSVSPGERATLSCKASQNVGGNVDWYQWKPGQAPRLLIYGASNRYTGIPARFRGSGSGTEFTLTISSLQSEDFAVYYCLQYKNNPWTFGQGTKVEIK
notes: Full-length antibody made in CHO cells; variable domains fused to the constant domains of human IgG4 heavy and human kappa light chains
B2: humanized anti-CLDN1 mAb H2L2 (antibody, V domains shown)
VH: B1 VH
VL: DIQMTQSPSSLSASVGDRVTITCKASQNVGGNVDWYQWKPGKAPKLLIYGASNRYTGVPSRFRGSGSGTDFTLTISSLQPEDVATYYCLQYKNNPWTFGQGTKVEIK
notes: as for B1
B3: humanized anti-CLDN1 mAb H3L2 (antibody, V domains shown)
VH: B1 VH with A23L, A24G, T49A, N84T
VL: B2 VL
notes: as for B1
B4: humanized anti-CLDN1 mAb H1L1 (antibody, V domains shown)
VH: B1 VH with Q1E, V11L, Q13K, R16G, T49S, S75A, T78S, I93V
VL: B1 VL
notes: as for B1
B5: humanized anti-CLDN1 mAb H3L3 (antibody, V domains shown)
VH: B1 VH with A23L, A24G, T49A, N84T
VL: B2 VL with S60D, Q100G
notes: Full-length antibody made in CHO cells; variable domains fused to the constant domains of human IgG4 heavy and human kappa light chains; also called humanized anti-CLDN1 antibody clone H3L3; humanized CLDN1 mAb (H3L3)
B6: humanized anti-CLDN1 mAb H1L3 (antibody, V domains shown)
VH: B1 VH with Q1E, V11L, Q13K, R16G, T49S, S75A, T78S, I93V
VL: B2 VL with S60D, Q100G
notes: as for B1
B7: humanized anti-CLDN1 mAb H2L3 (antibody, V domains shown)
VH: B1 VH
VL: B2 VL with S60D, Q100G
notes: as for B1
B8: humanized anti-CLDN1 mAb H1L2 (antibody, V domains shown)
VH: B1 VH with Q1E, V11L, Q13K, R16G, T49S, S75A, T78S, I93V
VL: B2 VL
notes: as for B1
B9: humanized anti-CLDN1 mAb H3L1 (antibody, V domains shown)
VH: B1 VH with A23L, A24G, T49A, N84T
VL: B1 VL
notes: as for B1
B10: rat anti-CLDN1 mAb OM-7D3-B3 (antibody, V domains shown)
VH: EVQLVESGGGLVQPGRSLKLSCLGSGFSFSSYGMNWIRQAPGKGLEWVASISPSGSYFYYADSVKGRFTISRENAKNTLYLQMTSLRAEDTALYYCARLPGFNPPFDHWGQGVVVTVSS
VL: NTVMTQSPTSMFMSVGDRVTMNCKASQNVGGNVDWYQWKPGQSPKLLMYGASNRYTGVPDRFRGSGSGTDFTLTISNMQTEDLAVYYCLQYKNNPWTFGGGTKVELK
notes: Hybridoma antibody, rat IgG2b with rat kappa light chain; also called rat OM-7D3-B3; parental rat antibody
B11: recombinant full-length IgG2b (parent isotype) antibody with the VH and VL of rat OM-7D3-B3 (antibody, V domains shown)
VH: B10 VH
VL: B10 VL
notes: IgG2b as the parent; also called recombinant full-length IgG2b antibody

Assays:
human Claudin-1 [1] = biological target: T1, human Claudin-1 (human, UniProt O95832 1-211); test: flow cytometry on Huh7.5.1 and HepG2 cells with surface CLDN1 (FIG. 2A)
T1 construct: whole, on cells; also called CLDN1; human CLDN1
T1 sequence (looked up): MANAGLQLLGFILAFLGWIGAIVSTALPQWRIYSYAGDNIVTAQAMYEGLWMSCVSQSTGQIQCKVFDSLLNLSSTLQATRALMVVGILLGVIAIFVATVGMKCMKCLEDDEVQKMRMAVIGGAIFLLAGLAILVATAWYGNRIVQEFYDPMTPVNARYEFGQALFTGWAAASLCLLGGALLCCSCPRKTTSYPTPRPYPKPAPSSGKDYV
Description: (§1) FIG. 2. […] (A) Flow cytometry analysis of the binding of humanized OM-7D3-B3 anti-CLDN1 mAbs (20 μg/mL) to cell lines. […] Binding is expressed as delta median fluorescence intensity (ΔMFI). […] After 48 h, cells were stained with isotype control, rat OM-7D3-B3 or humanized H3L3 antibody (20 μg/mL). The ΔMFI from one experiment performed in duplicate are shown. […] Huh 7.5.1 cells were incubated with different mAbs (25 μg/mL) at 37° C. for 1 h prior to infection with HCVcc. Infectivity was assessed after 72 h by measuring luciferase activity and is expressed as log relative luciferase units (RLU). (D) Humanized anti-CLDN1 mAbs inhibit entry of HCVpp bearing envelope glycoproteins of strains H77 (genotype 1a) and HCV-J (genotype 1b). PHH were pre-treated with the humanized antibodies (20 μg/mL) for 1 h at 37° C. prior to infection with HCVpp. Infectivity was measured by luciferase activity after 72 h and is expressed as RLU. Graphs show results from one experiment performed in duplicate (A, B, D) or in triplicate (C).
(§2) Flow cytometry. […] Cells were washed and incubated with phycoerythrin (PE)-conjugated species-specific secondary antibodies at 4° C. for 45 min to allow detection of binding. Cells were subsequently washed and fixed with 2% paraformaldehyde (PFA) prior to analysis by flow cytometry using a BD LSRII flow cytometer. Net delta median fluorescence intensities (ΔMFI) were obtained after subtracting the background fluorescence with PBS. […] After 48 h, binding of antibodies was assessed as described above.

human Claudin-1 [2] = biological target: T1, human Claudin-1; test: flow cytometry, 20 µg/mL, Huh7.5.1 and HepG2 cells (FIG. 2A)
Description: as §1
as §2, with “Cells were subsequently washed and fixed with 2% paraformaldehyde (PFA) prior to analysis by flow cytometry using a BD LSRII flow cytometer.” left out

human Claudin-1 [3] = biological target: T1, human Claudin-1; test: flow cytometry, 20 µg/mL, 293T cells transfected with CLDN1-expressing pcDNA3.1 (FIG. 2B)
Description: as §1
as §2, with “Cells were subsequently washed and fixed with 2% paraformaldehyde (PFA) prior to analysis by flow cytometry using a BD LSRII flow cytometer.” left out

human Claudin-1 [4] = biological target: T1, human Claudin-1; test: not described (data not shown)

Row | Binder | binding result (human Claudin-1 [1]) | also measured
1 | B1 | binds | 
2 | B2 | binds | 
3 | B3 | binds | 
4 | B4 |  | binding result (human Claudin-1 [2]): binds
5 | B5 |  | binding result (human Claudin-1 [3]): binds
6 | B6 | binds | 
7 | B7 | binds | 
8 | B8 | binds | 
9 | B9 | binds | 
10 | B10 | binds | 
11 | B11 |  | binding result (human Claudin-1 [4]): binds
